PMC13458718, “HSV-1 origin binding protein UL9 forms intermolecular DNA tethers and intramolecular DNA loops” (Nature Communications, 2026)

Columns and labels:
[1] = target: T1, HSV-1 UL9 (origin-binding protein UL9) (Human alphaherpesvirus 1 strain 17, UniProt P10193); assay: single-molecule TIRF (ALEX), UL9-atto647N dwell time on oriS DNA; conditions: 1 mM ATPγS, 20 nM UL9-atto647N, 1 mM MgCl2, pH 7.5; not an affinity constant
T1 construct: full ORF from plasmid pCM-UL9, C-terminal 3C-ybbR-TEV-StrepII tag, insect cells (Sf9/High5), StrepTrap and heparin; dimer; tag kept in unlabeled protein, TEV added on atto647N labelling

[2] = target: T2, UL9 origin-binding protein (Human herpesvirus 1 (HSV-1)) (UniProt P10193); assay: EMSA; conditions: C6-amino-dT at 5' end of strand 1 and internal (position 10) in strand 2; UL9 buffer: 40 mM Tris-Cl pH 7.5, 50 mM NaCl, 50 mM K-glutamate, 1 mM MgCl2, 0.5 mM DTT, 0.1 mg/ml BSA; EMSA at room temperature, 5 min; TIRF with oxygen …
T2 sequence: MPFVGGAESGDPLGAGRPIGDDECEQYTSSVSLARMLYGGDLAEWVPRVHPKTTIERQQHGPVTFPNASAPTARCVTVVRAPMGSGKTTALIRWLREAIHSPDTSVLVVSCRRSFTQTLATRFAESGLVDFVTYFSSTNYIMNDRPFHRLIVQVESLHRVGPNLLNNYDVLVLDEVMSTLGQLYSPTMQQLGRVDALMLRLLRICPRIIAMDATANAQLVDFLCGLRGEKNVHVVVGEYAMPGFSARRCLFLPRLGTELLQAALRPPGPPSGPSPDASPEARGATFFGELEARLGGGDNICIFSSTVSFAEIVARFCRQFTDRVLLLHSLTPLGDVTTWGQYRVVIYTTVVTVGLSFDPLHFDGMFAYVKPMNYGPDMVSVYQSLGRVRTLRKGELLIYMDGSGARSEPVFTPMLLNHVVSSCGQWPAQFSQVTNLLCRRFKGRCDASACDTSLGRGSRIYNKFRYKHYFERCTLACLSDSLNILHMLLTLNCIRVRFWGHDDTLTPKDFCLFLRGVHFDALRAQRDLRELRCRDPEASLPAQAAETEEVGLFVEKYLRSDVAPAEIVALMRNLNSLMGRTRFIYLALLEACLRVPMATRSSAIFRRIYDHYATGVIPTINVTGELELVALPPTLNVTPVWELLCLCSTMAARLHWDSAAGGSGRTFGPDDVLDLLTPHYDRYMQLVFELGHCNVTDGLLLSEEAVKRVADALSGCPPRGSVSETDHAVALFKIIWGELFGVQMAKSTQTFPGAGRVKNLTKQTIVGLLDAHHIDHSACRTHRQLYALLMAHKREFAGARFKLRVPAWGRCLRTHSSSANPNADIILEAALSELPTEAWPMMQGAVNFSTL

[3] = target: T3, UL9-atto647N (Human herpesvirus 1 (HSV-1)) (UniProt P10193); assay: single-molecule TIRF/FRET; conditions: C6-amino-dT at 5' end of strand 1 and internal (position 10) in strand 2; UL9 buffer: 40 mM Tris-Cl pH 7.5, 50 mM NaCl, 50 mM K-glutamate, 1 mM MgCl2, 0.5 mM DTT, 0.1 mg/ml BSA; EMSA at room temperature, 5 min; TIRF with oxygen …
T3 sequence: T2 sequence

[4] = target: the molecule itself; assay: single-molecule photobleaching steps (prism-TIRF with alternating laser excitation)
[5] = target: UL9 origin-binding protein (Human herpesvirus 1 (HSV-1), UniProt P10193 1-851); assay: single-molecule TIRF DNA capture; trans tethering to immobilized oriS (30.0 ± 6.9% of molecules); 20 nM UL9, no ATP; UL9 buffer: 40 mM Tris-Cl pH 7.5, 50 mM NaCl, 50 mM K-glutamate, 1 mM MgCl2, 0.5 mM DTT, 0.1 mg/ml BSA; EMSA at room temperature, 5 min; TIRF with oxygen scavenger; conditions: protein: recombinant; tags: C-terminal 3C-ybbR-TEV-StrepII; chain copies: 2; label: Cy5 on strand 1; strand 1 5' overhang 1 nt (amino-dT)

`Nc1ncnc2c1ncn2[C@@H]1O[C@H](COP(=O)(O)OP(=O)(O)OP(O)(O)=S)[C@@H](O)[C@H]1O` [ATPγS] was tested, and the “τon, avg” value [1] was 4.2 ± 0.1 s.

Work on “TCCAGTGCTCGCACTTCGCCCTAATAATATATATATATTGGGACGAAGTGCGAACGCTTCGCGTTCTCACTTC / AAAAAAAAATGAAGTGAGAACGCGAAGCGTTCGCACTTCGTCCCAATATATATATATTATTAGGGCGAAGTGCGAGCACTGG [oriS template AM057/AM071]” yielded a K half [2] of 13 nM, a Kd [2] of 131 nM and a Kd [3] of 31.9 nM.

B1: HSV-1 origin-binding protein UL9 labelled at its C-terminus with atto647N through a ybbR-tag (natural protein)
chain: T2 sequence
modifications: atto647N (CoA-conjugated dye, attached by Sfp transferase) on the C-terminal ybbR tag
notes: also called UL9-atto647N; not shown: ybbR, C-terminal, kept; strepII, C-terminal, cleaved
With B1 the “stoichiometry N” value [4] was 2.

B2: Cy5-oriS capture DNA AM057/AM058 (dsDNA)
DNA 1: TCCAGTGCTCGCACTTCGCCCTAATAATATATATATATTGGGACGAAGTGCGAACGCTTCGCGTTCTCACTTC
DNA 2: GAAGTGAGAACGCGAAGCGTTCGCACTTCGTCCCAATATATATATATTATTAGGGCGAAGTGCGAGCACTGG
modifications: C6-amino-dT at 5' end of strand 1
B2: binds [5].
